# Assay results as given in US20250002593A1 (INMAGENE PTE, published 2025).
# T1: membrane hIL-36R (human, UniProt Q9HB29 20-575)
# T1 sequence: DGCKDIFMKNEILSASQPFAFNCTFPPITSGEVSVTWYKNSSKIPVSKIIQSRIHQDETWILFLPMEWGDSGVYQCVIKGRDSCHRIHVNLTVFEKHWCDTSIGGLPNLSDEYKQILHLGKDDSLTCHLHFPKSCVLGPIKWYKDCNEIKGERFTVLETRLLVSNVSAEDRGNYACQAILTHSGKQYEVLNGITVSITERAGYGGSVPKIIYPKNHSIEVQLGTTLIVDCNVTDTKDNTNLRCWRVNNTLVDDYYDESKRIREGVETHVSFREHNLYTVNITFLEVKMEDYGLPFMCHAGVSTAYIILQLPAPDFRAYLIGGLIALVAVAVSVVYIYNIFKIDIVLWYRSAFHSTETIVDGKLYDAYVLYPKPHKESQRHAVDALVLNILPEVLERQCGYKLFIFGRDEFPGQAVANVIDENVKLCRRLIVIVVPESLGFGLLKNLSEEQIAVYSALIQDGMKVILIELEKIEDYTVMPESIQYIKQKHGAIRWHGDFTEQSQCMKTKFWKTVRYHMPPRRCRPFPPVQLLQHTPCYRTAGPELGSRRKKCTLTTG
# T2: Recombinant hIL-36R protein (Acrobio, Cat #IL2-H52H6) (human, UniProt Q9HB29 20-335)
# T2 construct: Bought soluble protein; also called recombinant human IL-36R protein
# T2 sequence: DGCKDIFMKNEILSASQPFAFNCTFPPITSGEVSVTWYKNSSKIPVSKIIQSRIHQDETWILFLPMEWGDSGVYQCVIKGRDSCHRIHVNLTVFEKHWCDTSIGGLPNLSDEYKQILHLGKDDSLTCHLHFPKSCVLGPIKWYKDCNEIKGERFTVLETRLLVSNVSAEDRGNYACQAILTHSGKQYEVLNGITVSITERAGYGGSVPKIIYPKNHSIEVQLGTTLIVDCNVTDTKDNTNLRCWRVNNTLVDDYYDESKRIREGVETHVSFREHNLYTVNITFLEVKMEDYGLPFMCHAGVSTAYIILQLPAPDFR
# T3: mouse IL-36R (R&D, Cat #2354-RP) (mouse, UniProt Q9ERS7 22-338, limits assumed)
# T3 construct: Bought; also called recombinant mouse IL-36R protein
# T3 sequence (looked up): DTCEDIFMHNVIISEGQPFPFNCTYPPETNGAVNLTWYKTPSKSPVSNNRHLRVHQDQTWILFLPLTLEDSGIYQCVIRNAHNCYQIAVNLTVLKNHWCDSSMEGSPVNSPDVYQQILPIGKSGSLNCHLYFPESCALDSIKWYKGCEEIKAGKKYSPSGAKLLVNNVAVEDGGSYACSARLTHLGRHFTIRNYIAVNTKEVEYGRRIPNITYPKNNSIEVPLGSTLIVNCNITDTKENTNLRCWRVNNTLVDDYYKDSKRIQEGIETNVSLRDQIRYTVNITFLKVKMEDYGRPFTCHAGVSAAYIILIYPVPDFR
# T4: recombinant hIL-36R-his (human, UniProt Q9HB29 20-337)
# T4 construct: Residues 1-337 (extracellular domain) are stated for the IL-36R-his used as immunogen; The range includes the signal peptide; no cleavage site is stated; also called recombinant hIL36R protein; recombinant human IL-36R-his protein; not shown: His tag
# T4 sequence: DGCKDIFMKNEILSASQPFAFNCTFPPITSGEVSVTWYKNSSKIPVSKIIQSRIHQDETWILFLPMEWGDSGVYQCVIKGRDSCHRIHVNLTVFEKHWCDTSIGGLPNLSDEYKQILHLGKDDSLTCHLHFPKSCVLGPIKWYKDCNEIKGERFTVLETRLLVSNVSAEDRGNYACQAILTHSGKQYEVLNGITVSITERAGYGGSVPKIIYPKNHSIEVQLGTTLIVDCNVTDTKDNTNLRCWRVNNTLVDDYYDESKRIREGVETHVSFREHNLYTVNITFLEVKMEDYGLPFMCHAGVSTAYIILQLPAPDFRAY
# T5: Recombinant hIL1R1 protein (human, UniProt P14778 18-332, limits assumed)
# T5 sequence (looked up): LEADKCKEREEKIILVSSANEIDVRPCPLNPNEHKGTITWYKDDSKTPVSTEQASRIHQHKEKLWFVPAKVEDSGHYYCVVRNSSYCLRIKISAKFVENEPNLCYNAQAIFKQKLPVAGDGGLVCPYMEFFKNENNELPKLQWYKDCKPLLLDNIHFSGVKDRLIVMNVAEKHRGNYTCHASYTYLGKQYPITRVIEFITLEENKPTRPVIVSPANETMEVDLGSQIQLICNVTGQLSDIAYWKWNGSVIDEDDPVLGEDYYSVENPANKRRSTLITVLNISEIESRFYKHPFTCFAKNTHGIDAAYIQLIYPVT
# B1: 5F7 (antibody, V domains shown)
# VH: EVKLVESGGGLVQPGGSLSLSCAASGFAFTDYYMNWVRQPPGKALEWLALIRNKAAGYTIYYSASVKGRFTISRDNSQSILYLQMTALRPEDSATYYCVRDMTIYDGYYVDYALDYWGQGTSVTVSS
# VL: DIQMNQSPSSLSASLGDTITITCRASQNINIWLSWYQQKPGNIPKLFIYKASNLHTGVPSRFSGSGSGTDFTLTISSLQPEDIATYYCQQSQSYPLTFGAGTKLELK
# notes: Mouse variable regions; also called chimeric antibody 5F7; 5F7 original molecular
# B2: 9A6 (antibody, V domains shown)
# VH: QVQLQQSGPGLMAPSQSLSITCTVSGFSLTSYDVSWIRQSPGKGLEWLGVIWTGGGTDYNSAFMSRLSITKDNSKSQVFLKMSSLQTDDTAIYYCVRVYYDPYYAMDYWGQGTSVTVSS
# VL: DIVLTQSPAIMSASPGEKVTMTCSASSSVSSRYLHWYQQKSGASPKLWIYGTSNLASGVPARFSGSGSGTSYSLTISSVEAEDAATYYCQQYHSDPLTFGAGTKLELK
# notes: Mouse variable regions; also called chimeric antibody 9A6
# B3: BI655130 (antibody, V domains shown)
# VH: QVQLVQSGAEVKKPGASVKVSCKASGYSFTSSWIHWVKQAPGQGLEWMGEINPGNVRTNYNENFRNKVTMTVDTSISTAYMELSRLRSDDTAVYYCTVVFYGEPYFPYWGQGTLVTVSS
# VL: QIVLTQSPGTLSLSPGERATMTCTASSSVSSSYFHWYQQKPGQAPRLWIYRTSRLASGVPDRFSGSGSGTDFTLTISRLEPEDAATYYCHQFHRSPLTFGAGTKLEIK
# notes: also called benchmark antibody
# Assays:
# membrane hIL-36R [1] = target: T1, membrane hIL-36R; assay: cell-based or functional assay
# membrane hIL-36R [2] = target: T1, membrane hIL-36R; assay: cell-based or functional assay; remark: listed apart in the source
# [3] = target: T2, Recombinant hIL-36R protein (Acrobio, …); assay: BLI (Gator), antibody on Protein A sensor, hIL-36R analyte; column head prints koff(1/Ms)
# Protocol: (§1) Antibodies was immobilized onto Protein A biosensor after balance. A baseline was detected for 60 seconds. And then antibody-antigen association was detected for 180 seconds to get the Kon factor data. Followed by dissociation in kinetic buffer for 180 seconds to get the Koff factor data. The regeneration of biosensors was in buffer 10 mM glycine, pH2.0. All the kinetics data were collected at 30° C. Data were acquired with Gator Bioanalysis System.
# [4] = target: T2, Recombinant hIL-36R protein (Acrobio, …); assay: BLI (Gator), antibody on Protein A sensor, hIL-36R analyte
# Protocol: as §1
# [5] = target: T2, Recombinant hIL-36R protein (Acrobio, …); assay: BLI (Gator), antibody on Protein A sensor, hIL-36R analyte; column head prints kon(1/s)
# Protocol: as §1
# membrane hIL-36R [6] = target: T1, membrane hIL-36R; assay: cell-based or functional assay; remark: listed apart in the source
# [7] = target: T3, mouse IL-36R (R&D, Cat #2354-RP); assay: BLI, antibody on Protein A sensor, recombinant mouse IL-36R as analyte
# Description: Antibodies was immobilized onto Protein A biosensor after balance. Cyno or mouse IL-36R was used as the analyte, followed by injecting running buffer as dissociation phase.
# [8] = target: T2, Recombinant hIL-36R protein (Acrobio, …); assay: SPR (Biacore T200, 25 C), antibody captured by Fc, hIL-36R analyte
# Protocol: To evaluate binding affinity of antibodies to hIL-36R, the binding affinity of antibodies were tested by surface plasmon resonance (SPR) technology with Biacore T200. The assay was performed at 25° C. and the running buffer was HBS-EP+. Diluted antibodies were captured on the sensor chip through Fc capture method.
# membrane hIL-36R [9] = target: T1, membrane hIL-36R; assay: cell-based or functional assay; remark: listed apart in the source
# membrane hIL-36R [10] = target: T1, membrane hIL-36R; assay: cell-based or functional assay; remark: listed apart in the source
# membrane hIL-36R [11] = target: T1, membrane hIL-36R; assay: flow cytometry on HEK293 cells transfected with pcDNA3.1-hIL36R, FITC anti-hIgG, MFI (median); unit taken from the x axis
# Protocol: After 48 h, the transfected cells were subjected to FACS analysis for anti-IL-36R antibodies binding. Cells were collected and seeded into 96 well plate at a concentration of 100000 cells/50 ul/well. 50 ul serially diluted antibodies were added to the cells and incubate at 4° C. for 1 h. After that, cells were washed twice with PBS and 100 ul diluted secondary antibody (FITC labeled anti-hIgG) was added into the cells and incubated at 4° C. for 30 min. After incubation, cells were washed twice with PBS and analyzed by flow cytometry.
# membrane hIL-36R [12] = target: T1, membrane hIL-36R; assay: cell-based or functional assay; remark: listed apart in the source
# recombinant hIL-36R-his = target: T4, recombinant hIL-36R-his; assay: ELISA on coated recombinant hIL36R protein (1 µg/ml), detection with HRP anti-hIgG; unit taken from the x axis Ab(µg/mL)
# Protocol: Recombinant hIL36R protein was coated at a concentration of 1 μg/ml 100 ul per well in ELISA plate overnight. After wash, the plate was blocked with PBS containing 1% BSA+1% normal goat serum+0.05% Tween20. After that, 100 ul serially diluted antibodies were added into the plate and incubated for 1 h. The specific binding to hIL36R of antibodies was detected by HRP linked anti-hIgG antibody.
# membrane hIL-36R [13] = target: T1, membrane hIL-36R; assay: cell-based or functional assay; remark: listed apart in the source
# membrane hIL-36R [14] = target: T1, membrane hIL-36R; assay: cell-based or functional assay; remark: listed apart in the source
# [15] = target: T5, Recombinant hIL1R1 protein; assay: ELISA on coated recombinant hIL1R1 protein, detection with HRP anti-hIgG
# Protocol: Then the plate was blocked with PBS containing 1% BSA+1% normal goat serum+0.05% Tween20. After that, 100 ul serially diluted antibodies were added into the plate and incubated for 1 h. The specific binding to hIL1R1 of antibodies was detected with HRP linked anti hIgG antibody.
# membrane hIL-36R [16] = target: T1, membrane hIL-36R; assay: cell-based or functional assay; remark: listed apart in the source
binder,measurement,setting,value
B1,"IC50, IL-36R reporter assay: inhibition of ligand induced luminescence in Jurkat-IL36R-IL1Racp-NFkB-luc cells (column printed '5F7-mus', taken as the '5F7 original molecular' of paragraph 330)",membrane hIL-36R [1],0.226 µg/mL
same,"IC50, IL-36α induced IL-36R signaling (IL36R reporter assay, luciferase)",membrane hIL-36R [2],0.448 nM
same,koff,[3],0.000861 s⁻¹
same,Kd,[4],14.6 nM
same,kon,[5],59100 M⁻¹ s⁻¹
B2,"IC50, IL-36α induced IL-36R signaling (IL36R reporter assay, luciferase)",membrane hIL-36R [2],0.312 nM
same,koff,[3],8.14e-07 s⁻¹
same,Kd,[4],0.0205 nM
same,kon,[5],39700 M⁻¹ s⁻¹
B3,"IC50, IL-36R reporter assay: inhibition of ligand induced luminescence in Jurkat-IL36R-IL1Racp-NFkB-luc cells (printed BI 655130)",membrane hIL-36R [1],0.0217 µg/mL
same,"IC50, inhibition of IL-36α induced IL-6 release in primary human epithelial keratinocytes (HEK cells) [panel IL-6]",membrane hIL-36R [6],0.0982 µg/mL
same,"IC50, inhibition of IL-36α induced IL-8 release in primary human epithelial keratinocytes (HEK cells) [panel IL-8]",membrane hIL-36R [6],0.0684 µg/mL
same,"IC50, inhibition of IL-36α induced TNF-α release in primary human epithelial keratinocytes (HEK cells) [panel TNF-α]",membrane hIL-36R [6],0.027 µg/mL
same,binding result,[7],no binding (tested: up to 100 nM IL-36R)
same,Kd,[8],0.935 nM
same,koff,[8],3.66e-05 s⁻¹
same,kon,[8],39200 M⁻¹ s⁻¹
same,"IC50, inhibition of IL-36γ induced IL-6 release in primary human epithelial keratinocytes (HEK cells) [panel IL-6]",membrane hIL-36R [9],0.0138 µg/mL
same,"IC50, inhibition of IL-36γ induced IL-8 release in primary human epithelial keratinocytes (HEK cells) [panel IL-8]",membrane hIL-36R [9],0.0077 µg/mL
same,"IC50, inhibition of IL-36γ induced TNF-α release in primary human epithelial keratinocytes (HEK cells) [panel TNF-α]",membrane hIL-36R [9],0.00575 µg/mL
same,"IC50, inhibition of IL-36β induced IL-6 release in primary human epithelial keratinocytes (HEK cells) [panel IL-6]",membrane hIL-36R [10],0.0229 µg/mL
same,"IC50, inhibition of IL-36β induced IL-8 release in primary human epithelial keratinocytes (HEK cells) [panel IL-8]",membrane hIL-36R [10],0.0293 µg/mL
same,"IC50, inhibition of IL-36β induced TNF-α release in primary human epithelial keratinocytes (HEK cells) [panel TNF-α]",membrane hIL-36R [10],0.0107 µg/mL
same,EC50,membrane hIL-36R [11],0.0875 µg/mL
same,"IC50, inhibition of IL-36α induced IL-8 release in A431 cells (IL-8 ELISA, OD450) [panel IL-36α]",membrane hIL-36R [12],0.0955 µg/mL
same,"IC50, inhibition of IL-36β induced IL-8 release in A431 cells (IL-8 ELISA, OD450) [panel IL-36β]",membrane hIL-36R [12],0.0532 µg/mL
same,"IC50, inhibition of IL-36γ induced IL-8 release in A431 cells (IL-8 ELISA, OD450) [panel IL-36γ]",membrane hIL-36R [12],0.0065 µg/mL
same,EC50,recombinant hIL-36R-his,0.0111 µg/mL
same,"IC50, inhibition of IL-36α induced IL-8 release in primary human dermal fibroblast (HDF) cells (IL-8 ELISA, OD450)",membrane hIL-36R [13],0.00361 µg/mL
same,"IC50, IL-36R reporter assay: inhibition of ligand induced luminescence in Jurkat-IL36R-IL1Racp-NFkB-luc cells",membrane hIL-36R [14],0.0133 µg/mL
same,binding result,[15],no binding (tested: 1 µg/mL)
same,"IC50, IL-36R reporter assay: inhibition of IL-36α induced luminescence in Jurkat-IL36R-IL1Racp-NFkB-luc cells",membrane hIL-36R [16],0.057 nM
